Square brackets hold non-standard residues; d marks the D form. Ends that are not written are not given here. Aib = CC(C)(N)C(=O)O
Biological target: glucagon receptor
Experiment: cell-based or functional assay

Binder | In vitro activity (Relative Activity to SEQ ID NO: 1, %) [%]
Y[Aib]QGTFTSDCSKYLDSRRAQDFVQWLMNT [glucagon derivative of SEQ ID NO: 43] | 1.6
Y[Aib]QGTFCSDYSKYLDSRRAQDFVQWLMNT [glucagon derivative of SEQ ID NO: 42] | 37.9
HSQGTFTSDYSKYLDSCDAQDFVQWLMNT [glucagon derivative of SEQ ID NO: 4] | < 0.1
YXQGTFTSDYSKYLDSRRAQDFVQWLMNT (aminoisobutyric acid (Aib) at position 2 (printed X)) [glucagon derivative of SEQ ID NO: 33] | 108
YSQGTFTSDYSKYLDSCEADDFVQWLMNT [glucagon derivative of SEQ ID NO: 7] | < 0.1
Y[Aib]QGTFTSDYSKYLDSRRACDFRLWLMNT [glucagon derivative of SEQ ID NO: 18] | < 0.1
HSQGTFTSDYSKYLDSCEADDFVQWLMNT [glucagon derivative of SEQ ID NO: 6] | < 0.1
Y[Aib]QGTFTSDYSKYLCEKRAQDFVVWLMNT [glucagon derivative of SEQ ID NO: 15] | 1.1
YXQGTFTSDYSKYLDSRRAQDFVQWLMNTC (aminoisobutyric acid (Aib) at position 2 (printed X)) [glucagon derivative of SEQ ID NO: 44] | 75.4
HSQGTFTSDYSKYLDCERAQDFVQWLMNT [glucagon derivative of SEQ ID NO: 3] | 6.1
Y[Aib]QGTFTSDYSCYLDSRRAQDFVQWLMNT [glucagon derivative of SEQ ID NO: 13] | 5.2
Y[Aib]QGTFTSDYSKYLDCRRAQVFVQWLMRT [glucagon derivative of SEQ ID NO: 16] | 4.2
Y[Aib]QGTFTSDYSKYLDCKRAKEFVQWLMNT [glucagon derivative of SEQ ID NO: 14] | 18.1
HSQGTFTSDYSKYLDCDRAQDFVQWLMNT [glucagon derivative of SEQ ID NO: 2] | 0.6
Y[Aib]QGTFTSDYSKYLDCVRAQDFVQWLMRT [glucagon derivative of SEQ ID NO: 17] | 23.2
Y[Aib]QGTFTSDYSKYLDEKCAKEFVQWLMNT [glucagon derivative of SEQ ID NO: 11] | 4.6
Y[Aib]QGTFTSDYSCYLDEKRAKEFVQWLMNT [glucagon derivative of SEQ ID NO: 45] | 5.2
HSQGTFTSDYSKYLDSCEAQDFVQWLMNT [glucagon derivative of SEQ ID NO: 5] | 0.3
Y[Aib]QGTFTSDYSKYLDSCDADDFVVWLINT [glucagon derivative of SEQ ID NO: 10] | < 0.1

Reference: patent US20240197834A1 (HANMI PHARM, published 2024)
